From doi:10.1101/2021.12.30.474394

Assays:
mutant CycT14MUT = mutant CycT14MUT (UniProt O60563); experiment: co-IP
mutant CycT14MUT(280) = mutant CycT14MUT(280) (UniProt O60563); experiment: co-IP

Row | fold change of co-IP against WT CycT1 (mutant CycT14MUT) | fold change of co-IP against WT CycT1(280) (mutant CycT14MUT(280)) | Binder
1 | 5.7 fold | 5.1 fold | DN Siah1C75S (enzyme) MSRQTATALPTGTSKCPPSQRVPALTGTTASNNDLASLFECPVCFDYVLPPILQCQSGHLVCSNCRPKLTCCPTSRGPLGSIRNLAMEKVANSVLFPCKYASSGCEITLPHTEKADHEELCEFRPYSCPCPGASCKWQGSLDAVMPHLMHQHKSITTLQGEDIVFLATDINLPGAVDWVMMQSCFGFHFMLVLEKQEKYDGHQQFFAIVQLIGTRKQAENFAYRLELNGHRRRLTWEATPRSIHEGIATAIMNSDCLVFDTSIAQLFAENGNLGINVTISMC
2 | 8.3 fold | 8.9 fold | WT Siah2 (enzyme) MSRPSSTGPSANKPCSKQPPPQPQHTPSPAAPPAAATISAAGPGSSAVPAAAAVISGPGGGGGAGPVSPQHHELTSLFECPVCFDYVLPPILQCQAGHLVCNQCRQKLSCCPTCRGALTPSIRNLAMEKVASAVLFPCKYATTGCSLTLHHTEKPEHEDICEYRPYSCPCPGASCKWQGSLEAVMSHLMHAHKSITTLQGEDIVFLATDINLPGAVDWVMMQSCFGHHFMLVLEKQEKYEGHQQFFAIVLLIGTRKQAENFAYRLELNGNRRRLTWEATPRSIHDGVAAAIMNSDCLVFDTAIAHLFADNGNLGINVTISTCCP
